According to paper PMC6660750, “Catalytic deficiency of O-GlcNAc transferase leads to X-linked intellectual disability” (Proceedings of the National Academy of Sciences of the …, 2019):

B1: P2 acceptor peptide (KKVAVSRA) (peptide)
peptide: KKVAVSRA
notes: OGT acceptor peptide substrate with alanine at the -2 subsite

Experiments:
[1] = target: T1, truncated OGT N567K (O-GlcNAc transferase, residues 323-1044, N567K variant) (human) (UniProt O15294)
T1 sequence: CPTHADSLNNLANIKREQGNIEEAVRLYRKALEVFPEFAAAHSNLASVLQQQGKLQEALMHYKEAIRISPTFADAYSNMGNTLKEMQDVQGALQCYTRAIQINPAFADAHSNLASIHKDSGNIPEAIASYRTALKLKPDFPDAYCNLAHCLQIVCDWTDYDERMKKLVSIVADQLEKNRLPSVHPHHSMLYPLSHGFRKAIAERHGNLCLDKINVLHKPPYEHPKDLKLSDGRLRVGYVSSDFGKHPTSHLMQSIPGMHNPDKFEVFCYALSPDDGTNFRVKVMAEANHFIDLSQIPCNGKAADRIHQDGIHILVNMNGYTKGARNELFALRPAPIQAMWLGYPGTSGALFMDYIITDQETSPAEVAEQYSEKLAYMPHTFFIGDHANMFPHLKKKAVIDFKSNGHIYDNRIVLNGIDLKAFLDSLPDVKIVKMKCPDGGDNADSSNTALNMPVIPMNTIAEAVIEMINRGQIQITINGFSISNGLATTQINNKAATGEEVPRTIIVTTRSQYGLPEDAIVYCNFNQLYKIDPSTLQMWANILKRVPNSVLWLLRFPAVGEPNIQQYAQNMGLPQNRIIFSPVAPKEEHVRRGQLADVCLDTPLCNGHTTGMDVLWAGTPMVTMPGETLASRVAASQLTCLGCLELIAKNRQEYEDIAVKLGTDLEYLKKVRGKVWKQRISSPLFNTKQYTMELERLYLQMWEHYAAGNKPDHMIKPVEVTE

[2] = target: T2, truncated OGT N567K (O-GlcNAc transferase, residues 323-1044, N567K variant) (human, UniProt O15294 323-1044, N567K); experiment: crystal structure; OGT N567K (323-1044) cocrystallized with the donor analog UDP-5S-GlcNAc and acceptor peptide P2; ternary complex; molecular replacement with PDB 5C1D; details: both partners purified
T2 construct: O-GlcNAc transferase (OGT), human, residues 323-1044, with the patient missense mutation N567K in the catalytic domain; In the crystal it also holds the donor analog UDP-5S-GlcNAc; N567K is a de novo mutation found in patients; also called N567K OGT; O-linked β-N-acetyl-D-glucosamine (O-GlcNAc) transferase N567K; source: recombinant, from Escherichia coli (expression and purification in SI …)
T2 sequence (looked up): T1 sequence

| Binder | OGT glycosyltransferase activity, steady-state (Michaelis-Menten) kinetics, fluorometric assay, OGT N567K against acceptor peptide P1, compared with OGT WT [1] [fold] | binding result [2] |
| --- | --- | --- |
| KKVPVSRA [P1 acceptor peptide (KKVPVSRA)] | 12 | – |
| B1 | – | binds |
